In paper PMC4288174 (Nucleic Acids Research, 2014):

Biological target: Recombinant hemagglutinin-tagged full-length CSB (human, UniProt Q03468 1-1493)
Assay: pull-down; ΔN-SNM1A (500 ng) with or without HA-CSB (500 ng) and α-HA magnetic beads; 20 mM HEPES pH 7.9, 4 mM MgCl2, 0.05 mM ATP, 40 μg/ml BSA, 1 mM DTT, 4°C, 2 h; silver stain
Conditions: both partners purified

Recombinant hemagglutinin-tagged full-length CSB, sequence (Q03468 whole entry): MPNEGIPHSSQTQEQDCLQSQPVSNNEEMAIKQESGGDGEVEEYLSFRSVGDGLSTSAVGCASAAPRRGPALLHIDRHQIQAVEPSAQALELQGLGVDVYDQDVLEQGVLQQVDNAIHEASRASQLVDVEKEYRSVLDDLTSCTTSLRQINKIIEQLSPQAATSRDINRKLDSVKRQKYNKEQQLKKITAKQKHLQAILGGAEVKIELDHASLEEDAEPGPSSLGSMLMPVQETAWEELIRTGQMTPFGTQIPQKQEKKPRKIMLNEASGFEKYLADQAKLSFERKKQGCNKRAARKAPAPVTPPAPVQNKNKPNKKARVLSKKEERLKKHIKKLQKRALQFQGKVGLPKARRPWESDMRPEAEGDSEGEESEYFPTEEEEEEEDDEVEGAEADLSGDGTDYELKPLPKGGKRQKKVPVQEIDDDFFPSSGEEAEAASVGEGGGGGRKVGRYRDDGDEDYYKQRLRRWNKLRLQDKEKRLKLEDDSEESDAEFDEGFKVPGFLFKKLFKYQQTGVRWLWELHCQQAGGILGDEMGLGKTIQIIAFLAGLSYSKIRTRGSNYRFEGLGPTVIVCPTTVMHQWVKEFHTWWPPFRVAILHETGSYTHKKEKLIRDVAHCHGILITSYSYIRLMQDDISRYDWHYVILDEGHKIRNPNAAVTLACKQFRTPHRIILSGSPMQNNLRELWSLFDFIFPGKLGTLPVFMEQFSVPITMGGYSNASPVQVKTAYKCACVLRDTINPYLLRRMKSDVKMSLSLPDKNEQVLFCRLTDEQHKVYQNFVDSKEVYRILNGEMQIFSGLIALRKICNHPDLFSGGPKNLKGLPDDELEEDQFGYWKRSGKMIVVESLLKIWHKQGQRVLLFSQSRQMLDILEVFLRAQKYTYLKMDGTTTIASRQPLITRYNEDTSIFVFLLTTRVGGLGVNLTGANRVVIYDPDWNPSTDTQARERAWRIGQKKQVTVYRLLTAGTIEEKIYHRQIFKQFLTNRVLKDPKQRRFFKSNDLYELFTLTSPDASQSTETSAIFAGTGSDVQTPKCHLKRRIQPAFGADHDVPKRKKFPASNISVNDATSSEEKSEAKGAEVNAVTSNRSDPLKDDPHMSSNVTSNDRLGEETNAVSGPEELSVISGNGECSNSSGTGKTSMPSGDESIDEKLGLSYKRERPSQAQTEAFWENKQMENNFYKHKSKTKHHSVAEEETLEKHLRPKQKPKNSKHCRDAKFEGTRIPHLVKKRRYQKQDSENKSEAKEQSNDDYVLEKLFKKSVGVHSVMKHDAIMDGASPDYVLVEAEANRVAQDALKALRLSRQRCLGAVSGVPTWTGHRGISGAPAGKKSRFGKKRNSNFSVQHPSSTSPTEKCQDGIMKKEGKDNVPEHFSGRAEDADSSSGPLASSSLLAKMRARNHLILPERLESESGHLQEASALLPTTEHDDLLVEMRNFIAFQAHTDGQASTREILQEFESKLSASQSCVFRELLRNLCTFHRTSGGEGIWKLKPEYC

B1: SNM1A nuclease fragment consisting of residues 608 to 1040 (domain or fragment, human, UniProt Q6PJP8 608-1040, looked up)
chain: SDLEFDASTLHESQLSVELSSERSQRQKKRCRKSNSLQEGACQKRSDHLINTESEAVNLSKVKVFTKSAHGGLQRGNKKIPESSNVGGSRKKTCPFYKKIPGTGFTVDAFQYGVVEGCTAYFLTHFHSDHYAGLSKHFTFPVYCSEITGNLLKNKLHVQEQYIHPLPLDTECIVNGVKVVLLDANHCPGAVMILFYLPNGTVILHTGDFRADPSMERSLLADQKVHMLYLDTTYCSPEYTFPSQQEVIRFAINTAFEAVTLNPHALVVCGTYSIGKEKVFLAIADVLGSKVGMSQEKYKTLQCLNIPEINSLITTDMCSSLVHLLPMMQINFKGLQSHLKKCGGKYNQILAFRPTGWTHSNKFTRIADVIPQTKGNISIYGIPYSEHSSYLEMKRFVQWLKPQKIIPTVNVGTWKSRSTMEKYFREWKLEAGY
binding result: binds
